Results taken from article PMC8038991, “R-catcher, a potent molecular tool to unveil the arginylome” (Cellular and Molecular Life Sciences: CMLS, 2021).
“Also recorded” adds a separate entry of the source.

B1: RGS4: ATE1 model substrate RGS4 (2nd oxidized Cys) (protein)
chain: RCKGLAGLPASCLRSAKDMKHRLGFLLQKSDSCEHNSSHNKKDKVVICQRVSQEEVKKWAESLENLISHECGLAAFKAFLKSEYSEENIDFWISCEEYKKIKSPSKLSPKAKKIYNEFISVQATKEVNLDSCTREETSRNMLEPTITCFDEAQKKIFNLMEKDSYRRFLKSRFYLDLVNPSSCGAEKQKGAKSSADCASLVPQCA
modifications: oxidized Cys as 2nd residue; left off: myc, end not stated, kept | His, end not stated, state not stated
B2: LG3BP: lectin galactoside-binding soluble 3-binding protein (protein)
chain: VNDGDMRLADGGATNQGRVEIFYRGQWGTVCDNLWDLTDASVVCRALGFENATQALGRAAFGQGSGPIMLDEVQCTGTEASLADCKSLGWLKSNCRHERDAGVVCTNETRSTHTLDLSRELSEALGQIFDSQRGCDLSISVNVQGEDALGFCGHTVILTANLEAQALWKEPGSNVTMSVDAECVPMVRDLLRYFYSRRIDITLSSVKCFHKLASAYGARQLQGYCASLFAILLPQDPSFQMPLDLYAYAVATGDALLEKLCLQFLAWNFEALTQAEAWPSVPTDLLQLLLPRSDLAVPSELALLKAVDTWSWGERASHEEVEGLVEKIRFPMMLPEELFELQFNLSLYWSHEALFQKKTLQALEFHTVPFQLLARYKGLNLTEDTYKPRIYTSPTWSAFVTDSSWSARKSQLVYQSRRGPLVKYSSDYFQAPSDYRYYPYQSFQTPQHPSFLFQDKRVSWSLVYLPTIQSCWNYGFSCSSDELPVLGLTKSGGSDRTIAYENKALMLCEGLFVADVTDFEGWKAAIPSALDTNSSKSTSSFPCPAGHFNGFRTVIRPFYLTNSSGVD
modifications: left off: myc, end not stated, kept | His, end not stated, state not stated
B3: FBLN1: fibulin-1 (protein, UniProt P23142 30-703, looked up)
Fibulin-1: DVLLEACCADGHRMATHQKDCSLPYATESKECRMVQEQCCHSQLEELHCATGISLANEQDRCATPHGDNASLEATFVKRCCHCCLLGRAAQAQGQSCEYSLMVGYQCGQVFQACCVKSQETGDLDVGGLQETDKIIEVEEEQEDPYLNDRCRGGGPCKQQCRDTGDEVVCSCFVGYQLLSDGVSCEDVNECITGSHSCRLGESCINTVGSFRCQRDSSCGTGYELTEDNSCKDIDECESGIHNCLPDFICQNTLGSFRCRPKLQCKSGFIQDALGNCIDINECLSISAPCPIGHTCINTEGSYTCQKNVPNCGRGYHLNEEGTRCVDVDECAPPAEPCGKGHRCVNSPGSFRCECKTGYYFDGISRMCVDVNECQRYPGRLCGHKCENTLGSYLCSCSVGFRLSVDGRSCEDINECSSSPCSQECANVYGSYQCYCRRGYQLSDVDGVTCEDIDECALPTGGHICSYRCINIPGSFQCSCPSSGYRLAPNGRNCQDIDECVTGIHNCSINETCFNIQGGFRCLAFECPENYRRSAATLQQEKTDTVRCIKSCRPNDVTCVFDPVHTISHTVISLPTFREFTRPEEIIFLRAITPPHPASQANIIFDITEGNLRDSFDIIKRYMDGMTVGVVRQVRPIVGPFHAVLKLEMNYVVGGVVSHRNVVNVHIFVSEYWF
B4: PRDX4: Peroxiredoxin-4 (protein, UniProt Q13162 38-271, looked up)
Peroxiredoxin-4: WETEERPRTREEECHFYAGGQVYPGEASRVSVADHSLHLSKAKISKPAPYWEGTAVIDGEFKELKLTDYRGKYLVFFFYPLDFTFVCPTEIIAFGDRLEEFRSINTEVVACSVDSQFTHLAWINTPRRQGGLGPIRIPLLSDLTHQISKDYGVYLEDSGHTLRGLFIIDDKGILRQITLNDLPVGRSVDETLRLVQAFQYTDKHGEVCPAGWKPGSETIIPDPAGKLKYFDKLN
B5: SERPINH1: serpin H1 (protein, UniProt P50454 19-418, looked up)
Serpin H1: AEVKKPAAAAAPGTAEKLSPKAATLAERSAGLAFSLYQAMAKDQAVENILVSPVVVASSLGLVSLGGKATTASQAKAVLSAEQLRDEEVHAGLGELLRSLSNSTARNVTWKLGSRLYGPSSVSFADDFVRSSKQHYNCEHSKINFRDKRSALQSINEWAAQTTDGKLPEVTKDVERTDGALLVNAMFFKPHWDEKFHHKMVDNRGFMVTRSYTVGVMMMHRTGLYNYYDDEKEKLQIVEMPLAHKLSSLIILMPHHVEPLERLEKLLTKEQLKIWMGKMQKKAVAISLPKGVVEVTHDLQKHLAGLGLTEAIDKNKADLSRMSGKKDLYLASVFHATAFELDTDGNPFDQDIYGREELRSPKLFYADHPFIFLVRDTQSGSLLFIGRLVRPKGDKMRDEL

What was measured:
R-catcher [1] = assay: Small-scale R-catcher pulldown of known arginylated proteins; assay type: binding, human; conditions: HEK293 cells, R-catcher on tactin beads, immunoblot, Fig. 4d
Procedure: (§1) For small-scale R-catcher pull-down assays, 300 µg of purified R-catcher was conjugated with 120 µl of Strep-Tactin sepharose resin by incubating overnight at 4 °C. To test R-catcher’s ability to capture known arginylated proteins, such as R-BiP, R-PDI, R-nsP4 and R-RGS4, plasmids encoding Ub-X-(BiP, PDI and nsP4) or MX-RGS4 (X = Arg or Val) were transiently transfected into HEK293 cells. After 24 h, cells were treated with 10 µM MG132 and 100 nM thapsigargin for another 24 h. Cells were harvested and lysed in hypotonic buffer and 300 µg total protein was incubate with 25 µl R-catcher-sepharose resin in binding buffer (20 mM HEPES pH 7.9, 0.05% Tween 20, 10% glycerol, 0.2 M KCl, protease inhibitor and phosphatase inhibitor) for 3 h with gentle rotation at 4 °C. After three washes with binding buffer, bound proteins were dissociated with 2 × SDS sample buffer and boiling at 100 °C and subjected to immunoblotting using anti-myc or flag antibodies.

R-catcher [2] = assay: R-catcher pulldown of putative arginylated ER proteins, HeLa; assay type: binding, human; conditions: 5 µM MG132 plus 100 nM TG, RA competition, Fig. 6a
Procedure: as §1
Plasmids encoding the proteins were transiently transfected to HeLa cells for 24 h and stimulated with 5 µM MG132 plus 100 nM TG for another 24 h. Cell lysates were incubated with R-catcher immobilized on tactin beads for 3 h. After wash, bound proteins were eluted with 2 × SDS sample buffer followed by boiling at 100 °C for 10 min and visualized by western blot analysis. b R-catcher pulldown assays to validate ATE1-dependent arginylation of […]1, PRDX4, FBLN1 and CLUS. Plasmids encoding […]1, PRDX4, FBLN1 and CLUS were transiently transfected into + / + and ATE1^−/− MEFs for 24 h and stimulated with 5 µM MG132 plus 100 nM TG for another 9 h. Cell lysates were subjected to R-catcher pulldown, and bound proteins were detected by western blot analysis. c R-catcher pull-down assays to evaluate if the arginylation of FBNL1, SERPINH1, CLUS and PRDX4 is induced in response to MG132 plus thapsigargin. d X-peptide pulldown assays to confirm no interaction of R-catcher with Nt-Ala19 of SERPINH1 peptides and Nt-Trp38 of PRDX4 peptides. X-peptides where X is A19 (SignalP predicted P1’ site), E20 (next possible P1’ site predicted by PrediSi) or R19 (Arginylated form of Glu) for SERPINH1 and W38 (SignalP predicted P1’ site), E39 (next possible P1’ site predicted by PrediSi) or R38 (Arginylated form) for PRDX4. Biotinylated X-peptides immobilized on streptavidin agarose beads were incubated with affinity-purified GST-ZZ ([…]). Bound GST-ZZ (N132D) was detected by immunoblotting. e Identification of arginylated sites employing mutational analysis. Predicted P1’ sites of SERPINH1, PRDX4, CLUS and FBLN1 were substituted to Gly, and the inhibitory effect of the mutation on binding with R-catcher was examined by performing R-catcher pulldown assays

R-catcher [3] = assay: R-catcher pulldown of P1' site Gly mutants; assay type: binding, human; conditions: E20 SERPINH1, E30 (printed) PRDX4, D23 CLUS, D30 FBLN1 to Gly, Fig. 6e
Procedure: as §1
(§2) Plasmids encoding the proteins were transiently transfected to HeLa cells for 24 h and stimulated with 5 µM MG132 plus 100 nM TG for another 24 h. Cell lysates were incubated with R-catcher immobilized on tactin beads for 3 h. After wash, bound proteins were eluted with 2 × SDS sample buffer followed by boiling at 100 °C for 10 min and visualized by western blot analysis. b R-catcher pulldown assays to validate ATE1-dependent arginylation of […]1, PRDX4, FBLN1 and CLUS. […] Cell lysates were subjected to R-catcher pulldown, and bound proteins were detected by western blot analysis. c R-catcher pull-down assays to evaluate if the arginylation of FBNL1, SERPINH1, CLUS and PRDX4 is induced in response to MG132 plus thapsigargin. d X-peptide pulldown assays to confirm no interaction of R-catcher with Nt-Ala19 of SERPINH1 peptides and Nt-Trp38 of PRDX4 peptides. […] Bound GST-ZZ (N132D) was detected by immunoblotting. e Identification of arginylated sites employing mutational analysis. […]

[4] = Identification of arginylation sites, GelNrich and in-gel digestion LC-MS/MS
From the text: Upon separation of the immunoprecipitated protein by SDS-PAGE and staining with Coomassie Blue, the corresponding protein band was excised, half of which was subjected to GelNrich and the other half to conventional in-gel digestion GelNrich is an N-terminal peptide enrichment method based on in-gel digestion. The method includes in-gel protein level labeling of primary amines using d6-acetic anhydride and post-digestion negative selection of labeled N-terminal peptide(s) using N-hydroxysuccinimide activated agarose beads. Peptides recovered from GelNrich or in-gel digestion were dried in a vacuum evaporator and reconstituted in 0.1% formic acid. An aliquot was injected from a cooled (10 °C) auto-sampler into a reversed-phase EASY-Spray column (25 cm × 75 μm, Thermo Fisher Scientific) on an Eksigent nanoLC-ultra 1D plus system (Danaher Corporation) at a flow rate of 300 nL/min. Prior to use, the column was equilibrated with 96% buffer A (0.1% formic acid in water) and 4% buffer B (0.1% formic acid in acetonitrile). The peptides were eluted with a linear gradient from 4 to 35% buffer B over 60 min and 35–80% buffer B over 2 min followed by an organic wash and aqueous re-equilibration at a flow rate of 300 nL/min with a total run time of 96 min. The HPLC system was coupled to a Q-Exactive mass spectrometer (Thermo Fisher Scientific) operated in a data-dependent acquisition (DDA) mode. Survey full-scan MS spectra (m/z 400–1800) were acquired with a resolution of 70,000. The MS/MS spectra of the 12 most intense ions from the MS1 scan with charge states 1 ~ 5 were acquired with the following options: resolution, 17,500; automatic gain control (AGC) target, 5E4; isolation width, 2.0 m/z; normalized collision energy, 27%; dynamic exclusion duration, 60 s; and ion selection threshold, 4.2E2 counts. Source ionization parameters were as follow: spray voltage, 1.9 kV; capillary temperature, 275 °C; and s-lens level, 50.0. […]

R-catcher [5] = assay: R-catcher pulldown in +/+ and ATE1-/- MEFs; assay type: binding; conditions: +/+ versus ATE1-/- MEFs, MG132 plus TG, 9 h, Fig. 6b
Procedure: as §1, §2

Row | Molecule | pulldown by R-catcher, overexpressed substrates (R-catcher [1]) | binding with R-catcher, Nt-Arg dependence (R-catcher [2]) | effect of Gly substitution of P1' site on interaction with R-catcher (R-catcher [3]) | arginylation detected by mass spectrometry [4] | capture by R-catcher, ATE1 dependence (R-catcher [5])
1 | B1 | could pulldown |  |  |  | 
2 | B2 |  | no significant binding affinity for R-catcher |  |  | 
3 | B3 |  | Nt-Arg-dependent binding with R-catcher | significantly impaired their interaction with R-catcher; also recorded: abolished their binding with R-catcher | the D30 residue | captured by R-catcher in an ATE1-dependent manner
4 | B4 |  | Nt-Arg-dependent binding with R-catcher | significantly impaired their interaction with R-catcher; also recorded: abolished their binding with R-catcher | not detected | captured by R-catcher in an ATE1-dependent manner
5 | B5 |  | Nt-Arg-dependent binding with R-catcher | significantly impaired their interaction with R-catcher; also recorded: abolished their binding with R-catcher | not detected | captured by R-catcher in an ATE1-dependent manner
